Test results published in article PMC4831847.

System: hPBV RdRP WT (human picobirnavirus strain Hy005102)
Test: EMSA
Conditions: 50 mM Tris-HCl pH 7.5, 50 mM KCl, 1 mM NaN3, 5 mM beta-mercaptoethanol, 10% glycerol, 1 nM 32P-RNA, 30 min at room temperature, 15% native PAGE in ice bath

CACACACACACACACACACA [CA repeat 20-mer]
binding signal (fold lower affinity than 5'-(+)UTR): 10

GGACUAACAGUCCCAACUGC [PBV 3'-(+)UTR]
binding signal (fold lower affinity than 5'-(+)UTR): 10

PBV2+ full-length
binding signal (fold stronger than PBV2+(Δ1-645)): 10

PBV2+(Δ1-645)
binding signal (fold weaker than full-length PBV2+): 10

GUAAAAUUUUCGAAUUUUAU [PBV 5'-(+)UTR]
binding signal (scale: fold higher affinity than 3'-(+)UTR or CA repeat): 10
